The assay has as its target T1, FLAG-tagged murine CHL2 polypeptide (mCHL2-FLAG) (murine, UniProt Q8VEA6 27-426).
T1 construct: also called murine CHL2-FLAG; FLAG-tagged mCHL2 protein
T1 sequence: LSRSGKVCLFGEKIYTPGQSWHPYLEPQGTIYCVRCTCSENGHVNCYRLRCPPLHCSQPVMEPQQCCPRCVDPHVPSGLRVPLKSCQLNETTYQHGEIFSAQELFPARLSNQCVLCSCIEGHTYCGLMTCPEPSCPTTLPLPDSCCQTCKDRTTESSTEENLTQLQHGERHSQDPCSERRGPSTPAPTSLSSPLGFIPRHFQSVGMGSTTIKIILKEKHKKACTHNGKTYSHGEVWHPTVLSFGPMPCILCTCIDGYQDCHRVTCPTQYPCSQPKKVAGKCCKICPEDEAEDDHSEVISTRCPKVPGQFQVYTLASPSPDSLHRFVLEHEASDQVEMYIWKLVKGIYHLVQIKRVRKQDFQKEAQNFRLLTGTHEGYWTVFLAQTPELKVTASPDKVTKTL
Put plainly: co-immunoprecipitation: mCHL2-FLAG mixed with activin A, anti-mCHL2 antiserum, protein A agarose beads, western blot for activin. An excerpt: FIG. 12 illustrates the results of Western blot analysis using mCHL2-FLAG proteins. In panel A, mCHL2-FLAG was mixed with BMP5 or activin A, treated with an anti-mCHL2 antiserum, and precipitated with protein A agarose beads. In panel B, mCHL2-FLAG was mixed with BMP2, BMP4, BMP5, BMP6, GDF5 (BMP14), or activin A, treated with an anti-mCHL2 antiserum, and precipitated with protein A agarose beads.
In general terms: Immunoblotting shows a protein as a band on a membrane.

B1: activin A (ligand, UniProt P08476 311-426, looked up)
chain: GLECDGKVNICCKKQFFVSFKDIGWNDWIIAPSGYHANYCEGECPSHIAGTSGSSLSFHSTVINHYRMRGHSPFANLKSCCVPTKLRPMSMLYYDDGQNIIKKDIQNMIVEECGCS
In the case of B1, the binding result is given as “no binding”.

For the origin of these results see patent US20030158378A1 (Amgen, published 2003).
